Measured values taken from patent US20210009703A1.

Biological target: cynomolgus CD25 expressed on cells (Cynomolgus monkey) (UniProt H6WS54)
Assay: flow cytometry on cyno-CD25-CHO-S cells, 100 nM antibody, anti-human R-PE

MFI: 82
Substance: IgG1 Isotype (antibody)
